According to paper PMC7036143 (Molecular cell, 2020):
Values joined by “and” are separate entries in the source; they are usually repeats but may differ in a detail not shown here. Equal values may be shown once. Read-outs that look alike come from different tables or passages of the source.

T1: Ec CdnC (Escherichia coli, UniProt D7Y2H2)
T1 sequence (D7Y2H2 1-321): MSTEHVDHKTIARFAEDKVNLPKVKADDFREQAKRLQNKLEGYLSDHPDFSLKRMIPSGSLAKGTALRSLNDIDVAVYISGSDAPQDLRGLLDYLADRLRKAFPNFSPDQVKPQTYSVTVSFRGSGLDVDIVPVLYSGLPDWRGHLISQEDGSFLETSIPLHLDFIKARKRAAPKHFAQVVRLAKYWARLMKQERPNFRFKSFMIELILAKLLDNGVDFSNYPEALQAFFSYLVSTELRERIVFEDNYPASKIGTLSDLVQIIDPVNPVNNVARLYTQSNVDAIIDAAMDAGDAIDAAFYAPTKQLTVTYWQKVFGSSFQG

T2: Ec CdnC:HORMA:Trip13^EQ (Escherichia coli, UniProt D7Y2H4, E159Q)
T2 sequence (D7Y2H4 1-311 E159Q): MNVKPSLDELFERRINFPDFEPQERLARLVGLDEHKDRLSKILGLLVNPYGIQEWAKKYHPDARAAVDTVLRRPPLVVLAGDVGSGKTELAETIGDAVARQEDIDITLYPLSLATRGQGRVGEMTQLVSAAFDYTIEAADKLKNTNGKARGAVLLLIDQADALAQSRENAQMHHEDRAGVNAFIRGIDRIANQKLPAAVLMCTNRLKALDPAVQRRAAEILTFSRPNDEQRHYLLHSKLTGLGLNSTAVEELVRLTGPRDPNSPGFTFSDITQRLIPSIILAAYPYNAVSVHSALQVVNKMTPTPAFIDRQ
T2 sequence (D7Y2H2 1-321 partner): T1 sequence (D7Y2H2 1-321)
T2 sequence (D7Y2H3 1-172 partner): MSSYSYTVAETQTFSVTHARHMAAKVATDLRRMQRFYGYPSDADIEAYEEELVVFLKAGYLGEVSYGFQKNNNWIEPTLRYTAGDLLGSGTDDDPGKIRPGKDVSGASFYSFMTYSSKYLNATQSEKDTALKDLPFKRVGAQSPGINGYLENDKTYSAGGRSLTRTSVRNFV

T3: Ec CdnC:HORMA-ΔN (crystal) (Escherichia coli, UniProt D7Y2H2)
T3 sequence (D7Y2H2 1-321): T1 sequence (D7Y2H2 1-321)
T3 sequence (D7Y2H3 12-172 partner): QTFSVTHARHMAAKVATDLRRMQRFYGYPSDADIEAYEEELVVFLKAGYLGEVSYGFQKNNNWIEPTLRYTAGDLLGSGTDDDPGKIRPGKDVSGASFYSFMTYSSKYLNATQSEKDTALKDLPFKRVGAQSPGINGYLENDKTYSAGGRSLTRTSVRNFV

T4: P. aeruginosa ATCC27853 CdnD (purified) (P. aeruginosa ATCC27853, UniProt P0DTF7 1-300)
T4 sequence: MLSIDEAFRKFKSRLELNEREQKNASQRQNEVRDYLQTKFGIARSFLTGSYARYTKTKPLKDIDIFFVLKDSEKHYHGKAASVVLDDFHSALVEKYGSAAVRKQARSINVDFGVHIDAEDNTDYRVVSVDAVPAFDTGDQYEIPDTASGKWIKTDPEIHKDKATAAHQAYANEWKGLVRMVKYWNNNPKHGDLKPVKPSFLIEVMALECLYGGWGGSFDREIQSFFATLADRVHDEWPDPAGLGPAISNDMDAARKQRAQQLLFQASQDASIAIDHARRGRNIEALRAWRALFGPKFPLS

T5: Ec HORMA:CdnC complex (co-expressed, purified, 1:1) (E. coli MS115-1, UniProt D7Y2H2 1-321; D7Y2H3 1-172)
T5 sequence (looked up) 1: T1 sequence (D7Y2H2 1-321)
T5 sequence (looked up) 2: T2 sequence (D7Y2H3 1-172 partner)

T6: E. coli MS115-1 CdnC (purified, in complexes with HORMA) (E. coli MS115-1, UniProt D7Y2H2 1-321)
T6 sequence (looked up): T1 sequence (D7Y2H2 1-321)

T7: Pa CdnD (Pseudomonas aeruginosa ATCC27853, UniProt P0DTF7 1-300)
T7 sequence: T4 sequence

B1: P. aeruginosa ATCC27853 HORMA3 (purified, in vitro reconstitution) (natural protein)
chain: MTTVVSRTFRSSPHRDALQTWDAIVELLTQGKDGTARSELRAVTGVAASLIADQAPKSAPIVATCDGPRTRIYCLFDEDAIDGDDANEEVLGFEPLKGDWGVSLPCPKEQLGWVQSALKKHSSRIIARDLSQGIATQAQADAGQALSLDLGGFLKS
B2: E. coli MS115-1 Trip13 E159Q (purified) (enzyme)
chain: T2 sequence (D7Y2H4 1-311 E159Q)
B3: E. coli MS115-1 HORMA with N-terminal His6-tag (purified) (natural protein, UniProt D7Y2H3 1-172, looked up)
chain: T2 sequence (D7Y2H3 1-172 partner)
B4: 40 bp dsDNA (5'-FAM Oligo #1/Oligo #2) (dsDNA)
DNA 1: CCTTTCGAAGACTCATCACGGAGAGCAGACATCATCTGGC
DNA 2: GCCAGATGATGTCTGCTCTCCGTGATGAGTCTTCGAAAGG
B5: P. aeruginosa ATCC27853 HORMA2 (purified alone, crystallised) (natural protein, UniProt P0DTF6 1-166, looked up)
chain: MSTVATYSYTHSVTYVTDNILKSLKDIILLSGLDPEHFADRWESNTRAIKTWLGTGDLRKVILEIYNPATDKLVTRWDIDIVYGWSDGDGSFWTDTEQLKYAIKKAGLLPSQAKYKLMLDTKPGRPDVEGWSKGSYRSTDGMVKQSLGSTVEHSGLAGQAGYWRQR
B6: P. aeruginosa ATCC27853 HORMA2 (purified in complexes) (natural protein)
chain: B5 chain

Key:
[1] = target: T1, Ec CdnC; test: crystal structure, […] Å; format: binding; conditions: Mg2+; active site; ATP co-purified from E. coli
[2] = target: T2, Ec CdnC:HORMA:Trip13^EQ; test: crystal structure, […] Å; format: binding; conditions: four of six Trip13 subunits (A-D); 1 mM ATP, 5 mM MgCl2
[3] = target: T3, Ec CdnC:HORMA-ΔN (crystal); test: crystal structure; format: binding; conditions: active site; copies contain either no ligand or AMP; co-purified
[4] = target: E. coli MS115-1 CdnC (purified, in complexes with HORMA) (E. coli MS115-1) (UniProt D7Y2H2); test: SEC
[5] = target: E. coli MS115-1 CdnC (purified, in complexes with HORMA) (E. coli MS115-1) (UniProt D7Y2H2); test: SEC; remark: listed apart in the source
[6] = target: Rhizobiales sp. Trip13 (Rhizobiales sp.); test: crystal structure
[7] = target: E. coli MS115-1 CdnC (purified, in complexes with HORMA) (E. coli MS115-1) (UniProt D7Y2H2); test: crystal structure
[8] = target: T4, P. aeruginosa ATCC27853 CdnD (purified); test: SEC-MALS
[9] = target: B6; test: SEC-MALS
[10] = target: the molecule itself; test: crystal structure
[11] = target: T5, Ec HORMA:CdnC complex (co-expressed, …); test: SEC-MALS
[12] = target: B6; test: crystal structure
[13] = target: B2; test: crystal structure
[14] = target: T6, E. coli MS115-1 CdnC (purified, in …); test: SEC-MALS
[15] = target: T7, Pa CdnD; test: filter binding
[16] = target: the molecule itself; test: crystal structure; remark: listed apart in the source

With `Nc1ncnc2c1ncn2[C@@H]1O[C@H](COP(=O)(O)OP(=O)(O)OP(=O)(O)O)[C@@H](O)[C@H]1O` [ATP] the “crystal structure, 1.44 Å” value [1] was “the active site is occupied by one molecule of ATP that was co-purified” and the “crystal structure, 2.64 Å” value [2] was “with four subunits (monomers A-D) bound to ATP”.

In the case of `Nc1ncnc2c1ncn2[C@@H]1O[C@H](COP(=O)(O)O)[C@@H](O)[C@H]1O` [AMP], the crystal structure [3] is reported as “contain either no ligand or AMP in the active site”.

In the case of “Ec HORMA-ΔN with the His6-tag removed (from UniProt D7Y2H3 12-172) (domain or fragment)”, the stoichiometry N (HORMA-ΔN per CdnC) [4] is reported as 1 and the stoichiometry N (HORMA-ΔN per CdnC) [5] is reported as 1.

Work on Rhizobiales sp. Trip13 (enzyme) yielded a stoichiometry N [6] of 6.

“Ec HORMA-ΔN with N-terminal His6-tag (from UniProt D7Y2H3 12-172) (domain or fragment)” was tested, and the stoichiometry N (HORMA-ΔN per CdnC (2:2 complex)) [7] was 1.

For B1, the “stoichiometry N” value [8] was 1 HORMA3 per CdnD and the “stoichiometry N” value [9] was 1 HORMA3 per HORMA2.

For B2, the “stoichiometry N” value [10] was 6 and the “stoichiometry N” value [11] was 6 Trip13^EQ per 1 CdnC:1 HORMA.

EVMEFNP [Peptide 1 (EVMEFNP), tag cleaved]: binds [12].

For B3, the binding result [13] was “binds” and the “stoichiometry N” value [14] was 1 HORMA per CdnC (1:1 complex) and 1 HORMA per CdnC (2:2 complex).

B4: no binding [15].

B5: binds [16].

With B6 the “stoichiometry N” value [8] was 1 HORMA2 per CdnD.
